From US20220290188

How the values were obtained:
Experiment in all cases: cell_activity
[1] = test system: TL9337 TALE-KRAB (synthetic); settings: TIM3, day 2
[2] = test system: pAL040 TALE-KRAB (synthetic); settings: PD-1, day 2
[3] = test system: TL11099 TALE-KRAB (synthetic); settings: PD-1, day 2
[4] = test system: TL9598 TALE-KRAB (synthetic); settings: LAG3, day 2
[5] = test system: TL11087 TALE-KRAB (synthetic); settings: PD-1, day 2
[6] = test system: TL11129 TALE-KRAB (synthetic); settings: PD-1, day 2
[7] = test system: TL11879 TALE-KRAB (synthetic); settings: PD-1, day 2
[8] = test system: TL9717 TALE-KRAB (synthetic); settings: LAG3, day 2
[9] = test system: TL11876 TALE-KRAB (synthetic); settings: PD-1, day 2
[10] = test system: TL11104 TALE-KRAB (synthetic); settings: PD-1, day 2
[11] = test system: TL8181 TALE-KRAB (synthetic); settings: TIM3, day 2
[12] = test system: TL11108 TALE-KRAB (synthetic); settings: PD-1, day 2
[13] = test system: TL11875 TALE-KRAB (synthetic); settings: PD-1, day 2
[14] = test system: TL11092 TALE-KRAB (synthetic); settings: PD-1, day 2
[15] = test system: TL11102 TALE-KRAB (synthetic); settings: PD-1, day 2
[16] = test system: TL8188 TALE-KRAB (synthetic); settings: TIM3, day 2
[17] = test system: TL11124 TALE-KRAB (synthetic); settings: PD-1, day 2
[18] = test system: TL9606 TALE-KRAB (synthetic); settings: LAG3, day 2
[19] = test system: TL8189 TALE-KRAB (synthetic); settings: TIM3, day 2
[20] = test system: TL11877 TALE-KRAB (synthetic); settings: PD-1, day 2; table prints SEQ 63 but bases match SEQ 18
[21] = test system: TL11101 TALE-KRAB (synthetic); settings: PD-1, day 2
[22] = test system: TL11103 TALE-KRAB (synthetic); settings: PD-1, day 2
[23] = test system: TL11119 TALE-KRAB (synthetic); settings: PD-1, day 2
[24] = test system: TL11110 TALE-KRAB (synthetic); settings: PD-1, day 2
[25] = test system: TL8201 TALE-KRAB (synthetic); settings: TIM3, day 2
[26] = test system: pAL043 (PD02) TALE-KRAB (synthetic); settings: PD-1, day 2
[27] = test system: TL11127 TALE-KRAB (synthetic); settings: PD-1, day 2
[28] = test system: TL11126 TALE-KRAB (synthetic); settings: PD-1, day 2
[29] = test system: TL8241 TALE-KRAB (synthetic); settings: LAG3, day 2
[30] = test system: TL9342 TALE-KRAB (synthetic); settings: TIM3, day 2
[31] = test system: TL11131 TALE-KRAB (synthetic); settings: PD-1, day 2
[32] = test system: TL8222 TALE-KRAB (synthetic); settings: LAG3, day 2
[33] = test system: TL11105 TALE-KRAB (synthetic); settings: PD-1, day 2
[34] = test system: TL11112 TALE-KRAB (synthetic); settings: PD-1, day 2
[35] = test system: TL11088 TALE-KRAB (synthetic); settings: PD-1, day 2
[36] = test system: TL11132 TALE-KRAB (synthetic); settings: PD-1, day 2
[37] = test system: TL11084 TALE-KRAB (synthetic); settings: PD-1, day 2
[38] = test system: TL11133 TALE-KRAB (synthetic); settings: PD-1, day 2
[39] = test system: TL11106 TALE-KRAB (synthetic); settings: PD-1, day 2
[40] = test system: TL8216 TALE-KRAB (synthetic); settings: LAG3, day 2
[41] = test system: TL8220 TALE-KRAB (synthetic); settings: LAG3, day 2
[42] = test system: TL9820 TALE-KRAB (synthetic); settings: LAG3, day 2
[43] = test system: TL8214 TALE-KRAB (synthetic); settings: LAG3, day 2
[44] = test system: TL11094 TALE-KRAB (synthetic); settings: PD-1, CD3+ T cells, day 2
[45] = test system: TL9339 TALE-KRAB (synthetic); settings: TIM3, day 2
[46] = test system: TL11093 TALE-KRAB (synthetic); settings: PD-1, day 2
[47] = test system: TL11128 TALE-KRAB (synthetic); settings: PD-1, day 2
[48] = test system: TL11130 TALE-KRAB (synthetic); settings: PD-1, day 2
[49] = test system: TL11096 TALE-KRAB (synthetic); settings: PD-1, day 2

TGGCAATCAGACACCCGGGTG (double strand) [TL9337 site]
activity [1]: > 80 % repression

TCTGTCACTCTCGCCCAC (double strand) [pAL040 site]
activity [2]: > 80 % repression

GCCGCCTTCTCCACT (double strand) [TL11099 site]
activity [3]: > 80 % repression

TCTGCTGGTCTCTGGGCCTTC (double strand) [TL9598 site]
activity [4]: > 80 % repression

CCTCCACATCCACGTGGGC (double strand) [TL11087 site]
activity [5]: > 50 % repression

GCCTCTGTCACTCTCG (double strand) [TL11129 site]
activity [6]: > 80 % repression

CTTCCTCCACATCCACG (double strand) [TL11879 site]
activity [7]: > 50 % repression

TTTGCTCTGTCTGCTC (double strand) [TL9717 site]
activity [8]: > 80 % repression

GACCTGGGACAGTTTCC (double strand) [TL11876 site]
activity [9]: > 80 % repression

TCCGCTCACCTCCGCCTGA (double strand) [TL11104 site]
activity [10]: > 80 % repression

ACTTCTTCCAACTGT (double strand) [TL8181 site]
activity [11]: > 50 % repression

GGGACAGTTTCCCTTC (double strand) [TL11108 site]
activity [12]: > 80 % repression

GCAGATCCCACAGGCGC (double strand) [TL11875 site]
activity [13]: > 80 % repression

CTGCATGCCTGGAGCAG (double strand) [TL11092 site]
activity [14]: > 50 % repression

CCACTGCTCAGGCGGAGGT (double strand) [TL11102 site]
activity [15]: > 50 % repression

GGCAGTGTTACTATAA (double strand) [TL8188 site]
activity [16]: > 80 % repression

CTCGCCCACGTGGATGTGG (double strand) [TL11124 site]
activity [17]: > 50 % repression

TGGTCTCTGGGCCTTCACCC (double strand) [TL9606 site]
activity [18]: > 80 % repression

TGCCAGTGATTCTTATAGT (double strand) [TL8189 site]
activity [19]: > 80 % repression

CCCAGGTCAGGTTGAAG (double strand) [TL11877 site]
activity [20]: > 80 % repression

TCTCCACTGCTCAGGCG (double strand) [TL11101 site]
activity [21]: > 80 % repression

GCTCAGGCGGAGGTGAG (double strand) [TL11103 site]
activity [22]: > 50 % repression

GCTCCCGCCCCCTCTTCCT (double strand) [TL11119 site]
activity [23]: > 50 % repression

CAACCTGACCTGGGACAGTT (double strand) [TL11110 site]
activity [24]: > 80 % repression

GAGAAAATTGTATTAGAT (double strand) [TL8201 site]
activity [25]: > 50 % repression

TGGTGGGGCTGCTCC (double strand) [pAL043 site]
activity [26]: > 80 % repression

CTGTCACTCTCGCCCACGT (double strand) [TL11127 site]
activity [27]: > 50 % repression

CACTCTCGCCCACGTGGAT (double strand) [TL11126 site]
activity [28]: > 50 % repression

CTGTTCCCTGGGACACCCCC (double strand) [TL8241 site]
activity [29]: > 50 % repression

TGCCACACTACACACAT (double strand) [TL9342 site]
activity [30]: > 80 % repression

CCCCCAGCACTGCCTCT (double strand) [TL11131 site]
activity [31]: > 50 % repression

GCCGTTCTGCTGGTCT (double strand) [TL8222 site]
activity [32]: > 80 % repression

CCCTTCCGCTCACCTCCGC (double strand) [TL11105 site]
activity [33]: > 80 % repression

CCCTTCAACCTGACCT (double strand) [TL11112 site]
activity [34]: > 80 % repression

CCCACAGGCGCCCTGG (double strand) [TL11088 site]
activity [35]: > 50 % repression

CCTCCCCCAGCACTGC (double strand) [TL11132 site]
activity [36]: > 80 % repression

GGCCAGGGCGCCTGT (double strand) [TL11084 site]
activity [37]: > 50 % repression

CCTCCCCCAGCACTGCC (double strand) [TL11133 site]
activity [38]: > 80 % repression

TTCCCTTCCGCTCACC (double strand) [TL11106 site]
activity [39]: > 80 % repression

TCTGCTGGTCTCTGGGCC (double strand) [TL8216 site]
activity [40]: > 80 % repression

GCCGTTCTGCTGGTCTCT (double strand) [TL8220 site]
activity [41]: > 80 % repression

TTCACCCCTGTGCCCGGCCTTCC (double strand) [TL9820 site]
activity [42]: > 80 % repression

GGTCTCTGGGCCTTCA (double strand) [TL8214 site]
activity [43]: > 80 % repression

GGTGGGGCTGCTCCAGG (double strand) [TL11094 site]
activity [44]: > 80 % repression

TGTCTGATTGCCAGTGATT (double strand) [TL9339 site]
activity [45]: > 80 % repression

GGGGCTGCTCCAGGCATGC (double strand) [TL11093 site]
activity [46]: > 50 % repression

GCCTCTGTCACTCTCGCCC (double strand) [TL11128 site]
activity [47]: > 80 % repression

GACAGAGGCAGTGCTGG (double strand) [TL11130 site]
activity [48]: > 50 % repression

GGAGCAGCCCCACCAGAGT (double strand) [TL11096 site]
activity [49]: > 50 % repression
